Results from the nanobody polyreactivity screen of Harvey et al. (2022).

assay: yeast display, Sf9 membrane polyspecificity reagent, FACS + sequencing; frameworks hold sequencing errors
Method in brief: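 In a synthetic yeast display library (Saccharomyces cerevisiae BJ5465), nanobody expression was induced with galactose for 36–48 hours. FACS gates were set low and high (top ~1%) using anti-HA fluorescence for expression and streptavidin fluorescence for binding of the Sf9 membrane reagent. Each polyreactivity label is drawn from the gate of origin.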

| Sequence | polyreactivity (PSR sort gate) |
| --- | --- |
| QVQLVESGGGLVQAGGSLRLSCAASGRTFTYYAMGWYRPAPGKERELVASISTTGRTYYADSVKGRFTISRDNAKNTVYLQMNSLKPEDTAVYYCATRSRYYYDYWGQGTQVTVSS | high polyreactivity |
| QVLLQESGGGLVQAGGSLRLSCAASGTISTDIRMGWYRLAPGKEREFVASIDGCSTTYYADSVKGRFTISRDNAKNTVFLQMNSLKPEDTAMYYCAAREATEFYLYYWGQGTQVTVSS | low polyreactivity |
| QVQLVESGGGLVQAGGSLRLSCAASGFIFVDYVMGWDIQAPGKERELVAAISERGTGTYYADSVKRRFTISRDKAKNTVYLQMNSLKPEDTAVYYCATLGTGWWNCAYYYWGQGTQVTVSS | low polyreactivity |
| HEQLVESGGGLVQAGGSLRLICAASGRIFPRYAMGRYRQAPGKEMELVAAITKRDGSTYYADSVKGRFTISRDNAKNTVYLQMNSLKPEDSAVYYCATRRLYSKSWYYYWGQGTQVTVSS | high polyreactivity |
| QVQLVESGGGLVQAGGSLRLSCAASGSICYGYTMGWYRQAPGKEREFVAAITGSGGSTYYADSVKGRFTISRDNAKNTVYLQMNSLKPEDTAVYYCAARRYVNRRYDYWGQGTQVTVSS | high polyreactivity |
| HVQRVESGGGLVQAGGSLRLSCAASGLIFVRYAMGWYRQAPGKERELVAAITTGGRTYYADSVKGRFTISRDNAKNTVYLQMNSLKPEDTAVYDCAASRSTYRASRPGTTFNYWGQGTQVTVSS | high polyreactivity |
| QVQLVESAGGLVQAGGSLRLSCAASGSIFVYNTMGWYRQAPGKERELVASITYSGGSTYYADSVKGRFTISRDNAKNTVYLQMNSLKPEDTAVYYCNTDDVALQWDWYPYPYDYWGQGTQVTVSS | low polyreactivity |
| QVQLVETGGGLVQAGGSLRLSCAASGRIFRGNTMGWYRQAPGKERELVAAISWRGGRTYYADSVKWRFTISRDNAKNTVYLQMISLKPEDTAVYYCNAVYFQTGVYGYGDYDSWGQGTQVTVSS | low polyreactivity |
| QVQLEVSGGGLVQAGRSLRLSCAASGSTFYGYAMGWYRQAPGKERELVAAITSSGGSTYYADSVKGRFTISRDNAKNTVYLQMNSLKPEDTAVYYCNAKRAPWGTLYNYWGQGTQVTVSS | high polyreactivity |
| QVQLQESGGGLVQASGSIFHEPNMGWYRQAPGKERELVAGISSGANTYYADSVKGRFTISRDNAKNTVYLQMNSVKPEDTAVYHCAVVVHLYTDLRNWGQDTQVTVSS | high polyreactivity |
| QVQLVESGGGLVQAGGSLRLSCAASGRTFYVYTMGWYRQAPGKERELVAANTSGGSTNYADSVKGRFTISRDNAKNTVYLQMNSLKPEDTAVYYCAARVSTVFKRYYYWGQGTQVTVSS | high polyreactivity |
| QVQLVESGGGLVQAGGSLRLSCAASGRIFARNAMGWYRQAPGKERELVAAISWSGGRTYYADSVKGRFTISRDNAKNTVYLQMNSLKPEDTAVYYCAADHYPWWAWEFDYWGQGTQVTVSS | low polyreactivity |
| QVQLVESGGGLVQAGGSLRLSCAASGLTSTNNAMGWYRQAHGKERELVAAITSGSTTNYADSVKGRFTISRDNAKNTVYLQMNSLKPEDTAVYYCAAQYGVCWRRYYYPEYDYWGQGTQVTVSS | low polyreactivity |
| QVQLVESGGGLVQAGGSLRLSCAASGSTFTPYGMGWYRQAPGKERELVAAITVSGGRTYYADSVKGRFTISRDNAKNTVYLQMNSLKPEDTAVYYCAAVYLRGDGEYDYWGQGTQVTVSS | low polyreactivity |
| QVQLVESGGGLVQAGGSLRLTCAASGFTFRSYAMGWYRQAPGKERELVADISIRGGGTYYADSVKGRFTISRDNAKNTVYLQRNSLKPEDTAVYYCAAERYKPFLWPRYDYWGQGTQVTVSS | low polyreactivity |
| QDQLVESGGGLVQAGGSLRLSCAASGYTFFFYVMGWSRQAAGKERELVAAITFSVGSTYYADSVKRRFTISRDNAKNTVYLQMNSLKPEDTAVYYCAARGALYSHSYGSARYYYWGQGTQVTVSS | high polyreactivity |
| QVQLVESGGGLVQAGGSLRLSCAASGRTFSLYDMGWYRQAPGKERELVAAISYSGTRTYYADSVKGRFTISRDNAKNTVYLQMNCLKPEDTAVYYCARVYTVGTGRSWRLDYWGQGTQVTVSS | high polyreactivity |
| QVQLVESGGGLVQAGGSLRLSCAASGITFVRNAMGWYRQAPGKEREFVAAISRSGTTTYYADSVKGRFTISRDNAKNTVYLQMNSLKPEETAVYYCAAVRWVRYRTSAYEYWGQGTQVTVSS | high polyreactivity |
| QVQLVESGGGLVQAGGSLRLSCAASGFTFGENAMGWYRQAPGKERELVATISDSGDSTYYADSVKGRFTISRDNAQNTVYLQMNSLKPEDTAVYYCAAPLPHRGYDEGYWGQGTQVTVSS | low polyreactivity |
| QVQLVESGGGLVQAGGSLRLSCAASGSTFSSNAMGWYRKAPGKERELVAAISVNGGSTNYADSVKGRFTISRDNAKNTVYLQMNSLKPEDTAVYYCAAEPAKVAFYRGDYWGQGTQVTVSS | low polyreactivity |
| QVQLVESGGGLVQAGGSLRLSCAASGLIIPYYAMGWSRQAPGKERELVAGITSDGSTNYADSVMGRFTISRDNAKIIVYLQMYSLKPVDTAVYYCAKEQGLYSVSPYDYWGQGTQVSVSS | low polyreactivity |

| Sequence | polyreactivity (PSR sort gate) |
| --- | --- |
| QVQLVESGGGLVQAGGSLRLICAASGRTFADYAMGWYRQAPGKERELVAAISWRGGSTYYADSVKGRFTISRDNAKITVYLQMNSLKPEDTAVYYSNKAYPAHYDYLGQGTQVTVSS | low polyreactivity |
| QVQHVESGGGLVQAGGSLRLSCAASGRTLSFYAMGWYRQAPGKERELVAAINYSGGRTSYADSVKGRFTISRDNAKNTVYLQMNSLKPEDTAVYYCAKGVYPWGVYYWGQGTQVTVSS | low polyreactivity |
| QVQLVESGGGLVQAGGSLRLTCADSGIIYTYNAMRWYRQAPGKEMEFVATITWSGGSTYYADSVKGRFTISRDNAMNTVYFQMNSLKPEDTAVYYCAVDYSRHGYWSPVYEFNYWGQGTQVTVSS | low polyreactivity |
| QVQLVESGGGLVQAGGSLRISCAASGRTFRHYAMGWYIQAPGKEREFVAAISRSGGSTRYADSVKGRFTISRDNAKNSVYLQMNSLKPEDTAVYYCAATSRSYNDYDYWGQGTQVTVSS | high polyreactivity |
| QVQLVESGGGLVQAGGSLRLSGAASGRTLYCYAMGWSRQAPGKEREFVAAMSRSGGSTYYADSVKGRFTISRDNAKNTVYLQMNRLKPEETAVYYCADDRSFLQIYKAGPQYRSNYWGQGTQVTVSS | high polyreactivity |
| LVQLVESGGGLVQAGGSLRLSCAASGSTFGYNAMGWYRQAPGKERELVAAISRGAGSTYYADSVKGRFTITRDNAKYTVYLQMNCLKPEDTAVYYCAKERPRGAPAYYSRIYDYWGQGTQVTVSS | high polyreactivity |
| QVQLVESGGGLVQAGGSLRLSCDASGRISGSYVMGWYRQAPRKERELVAGISGRGGSTYYADSVKGRFTISRDNAKNTVDLQMNSLKPEDTAVYYCAVVDRTSKGNSYYWGQGTQVTVSS | high polyreactivity |
| QVQLVESGGGLVQAGGSLRLSCAASGSIFTRNTMGWYRQAPGKERELVAAITSSGGSTYYADSVKGRFTISRDTAKNTVYLQMNSLKPEDTAVYYCAADVGVYYYSFYYWGQGTQVTVSS | high polyreactivity |
| QVQLVESGGGLVQAGGSLRLSCAASGLTFSTNAMGWYRQAPGKEREFVAAISFNGGSTYYADSVKGRFTISRDNAKNTVYLQMNSLKPEDTAVYYWNAVKYRYLEYNYWGQGTQVTVSS | high polyreactivity |
| QVQLVESGGGLVQAGGSLRLSCAASNSSINAMGWYRQAPGKERELVAAIRWSGSSTYYADSEKGRFPISRDNAKTTVYLQMNSLKPEDTAVYYCAADTTTGDRGFDYWGQGTQVTVSS | high polyreactivity |
| QVQLVESGGGLVHAGGSLRLSCAASGTTLAIYAMGWYRQAPGKERELVASISRVGSTNYADSVKGRFTISRDNAKNTVYLQRNSLKPEDTAVYYCAARRSSYVILRAYYYWGQGTQVTVSS | high polyreactivity |
| QVQLVESGGGLVQAGGSLRLSCAASGLIFSSYPKGWYRQAPGKEWVLVAAITRTGGDTYYADSVKGRFTISRDNAQNSFYLQMNSLKPEDTAVYYCSSSGPQYYSRNFDYWGQGTQVTVSS | low polyreactivity |
| QVQLVESGGGLVQAGGSLSLSCADSGLTFRKYAMGWYRQAPGKERELVAAISWSGGSTYYANSVKGRFTISRDNAKNTVYLQMNSLKPEETAVYYCAAVPVHTGSMYWGFTNGYDYWGQGTQVTLSS | low polyreactivity |
| QVQLVESGGGLGQAGGSLRLSCAASGSTFTRYGMGWSRQAPGKERELVAAITTSGSSTYYADSVKGRFTISRDNAKNTVYLQMNSLKPEDTAVYYCAADWSSWGFDYWGQGTQVTVSS | low polyreactivity |
| QVQLQESGGGLVQAGGSLRLSCAASGNIFDADIMGWYRQAPGKERELVASITDGGSTNYADSVKGRFTISRDNAKNTLYLQLISLYPDDTGVYYCAAIAYPDIPTYFDYDSDYFYWGQGTQVTVSS | high polyreactivity |
| QVQLVESGGGLVQAGGSLRLSCAASGRIFWRYAMGWYRQAPGKERELVAGITYSGGRTYYADSVKGRFTISRDNAKNTVYLQMNSLTPEDTAVYYCAARGYFDALFDYWGQGTQVTVSS | low polyreactivity |
| QVQLVESGGGLVQAGGSLRLSSAASGFTFSHYAMGWYRQAPGKERELVAAITWSGGSTYYADSVKGRFTISRDNAKNTVYLQINSLKPEDTAVYYCAAESYLDGGEYWGQGTQVTVSS | high polyreactivity |
| QVQLVESGGGLVQAGGSLRLSCAASGSIIDLNAMGWYRKAHGKERELVAAISSGGITYYADSVKGRFTISRDNAKNTVYLHMNSLKPEDTAVYYCAARYNHYFSLYDYWGQGTQVTVSS | high polyreactivity |
| QVQLVESGGGLVQARGSRRLTCAASGRTFSYYAMGWYLHEPGKERELVAAITSSGGRTTYADSVKGRFTISRDNAKNTVYLQMNSLKPEDTAVYYCNVVRWTLKYGYWGQGTQVTVSS | high polyreactivity |
| QVQLVESGGGLVQAGGSLRLSCAASGRIFPGYAMGWYRQAPGKEREFVAAITASGGTTYYADSVKGRFTISRDNAKNTVYLQMNSLKPEDTAVYYCAVYDWRYYLGKLMEYWGQGTQVTVSS | high polyreactivity |
